IC50 data for 20 molecules are collected here from patent US20190119358A1.

*1 amine or outer side, *2 acyl side, *3 side chain or, on linkers, in order; H or OH if unused. Bridges are numbered along the chain shown (N, C = ends). Primed or numbered codes have the meaning given here. Where no end group is shown, it is not given here. [ ]: non-standard residue; d: D form. The star is where a group is joined. ξ: configuration not given here. DAPTZAC3 = (S)-3-(4-(3-acrylamidopropyl)-1H-1,2,3-triazol-1-yl)-2-aminopropanoic acid, C=CC(=O)NCCCc1cn(C[C@H](N[*:1])C(=O)[*:2])nn1; DAPTZAC1 = (S)-3-(4-(acrylamidomethyl)-1H-1,2,3-triazol-1-yl)-2-aminopropanoic acid, C=CC(=O)NCc1cn(C[C@H](N[*:1])C(=O)[*:2])nn1; ADTZPA″ = (S)-2-amino-3-(1-dodecyl-1H-1,2,3-triazol-4-yl)propanoic acid, CCCCCCCCCCCCn1cc(C[C@H](N[*:1])C(=O)[*:2])nn1; MORAC = (S)-5-acrylamido-2-(methylamino)pentanoic acid, C=CC(=O)NCCC[C@@H](C(=O)[*:2])N(C)[*:1]; DABAC1 = (S)-4-acrylamido-2-aminobutanoic acid, C=CC(=O)NCC[C@H](N[*:1])C(=O)[*:2]; Trp(7-aza) = N[C@@H](Cc1c[nH]c2ncccc12)C(=O)O; NMePhe(4-F) = CN[C@@H](Cc1ccc(F)cc1)C(=O)O; ivDde = CC(C)CC(=C1C(=O)CC(C)(C)CC1=O)*; mXylylene = c1cc(C[*:1])cc(C[*:2])c1; Glutaryl = O=C(CCCC(=O)[*:2])[*:1]; NMeK = CN[C@@H](CCCCN)C(=O)O; PEG4 = NCCOCCOCCOCCOCCC(=O)O; Phg = N[C@H](C(=O)O)c1ccccc1; Tle = CC(C)(C)[C@H](N)C(=O)O; NMeS = CN[C@@H](CO)C(=O)O; ξPhg = NC(C(=O)O)c1ccccc1; NMeA = CN[C@@H](C)C(=O)O; Pra = C#CC[C@H](N)C(=O)O; Dab = NCC[C@H](N)C(=O)O; Nva = CCC[C@H](N)C(=O)O; Dap = NC[C@H](N)C(=O)O; AEEA = NCCOCCOCC(=O)O; Acryloyl = C=CC(=O)*; PEG1 = NCCOCCC(=O)O; Ahx = NCCCCCC(=O)O; Sar = CNCC(=O)O

B1: R4146 (peptide)
peptide: Ac-[Nva]CY[Tle]A[DABAC1][NMeA][Phg][Trp(7-aza)]Y[NMePhe(4-F)][Sar]C-NH2
modifications: linker 2-13 via mXylylene
SMILES: C=CC(=O)NCC[C@@H]1NC(=O)[C@H](C)NC(=O)[C@H](C(C)(C)C)NC(=O)[C@H](Cc2ccc(O)cc2)NC(=O)[C@@H](NC(=O)[C@H](CCC)NC(C)=O)CSCc2cccc(c2)CSC[C@@H](C(N)=O)NC(=O)CN(C)C(=O)[C@H](Cc2ccc(F)cc2)N(C)C(=O)[C@H](Cc2ccc(O)cc2)NC(=O)[C@H](Cc2c[nH]c3ncccc23)NC(=O)[C@H](c2ccccc2)NC(=O)[C@H](C)N(C)C1=O
B2: R4142 (peptide)
peptide: Ac-[Nva]CY[Tle]AH[MORAC][Phg][Trp(7-aza)]Y[NMePhe(4-F)][Sar]C-NH2
modifications: linker 2-13 via mXylylene
SMILES: C=CC(=O)NCCC[C@H]1C(=O)N[C@@H](c2ccccc2)C(=O)N[C@@H](Cc2c[nH]c3ncccc23)C(=O)N[C@@H](Cc2ccc(O)cc2)C(=O)N(C)[C@@H](Cc2ccc(F)cc2)C(=O)N(C)CC(=O)N[C@H](C(N)=O)CSCc2cccc(c2)CSC[C@H](NC(=O)[C@H](CCC)NC(C)=O)C(=O)N[C@@H](Cc2ccc(O)cc2)C(=O)N[C@@H](C(C)(C)C)C(=O)N[C@@H](C)C(=O)N[C@@H](Cc2c[nH]cn2)C(=O)N1C
B3: R4137 (peptide)
peptide: cyclo([Ahx]Y[Tle]KH[NMeA][Phg][Trp(7-aza)]Y[NMePhe(4-F)][Sar][Pra])
SMILES: C#CC[C@@H]1NC(=O)CN(C)C(=O)[C@H](Cc2ccc(F)cc2)N(C)C(=O)[C@H](Cc2ccc(O)cc2)NC(=O)[C@H](Cc2c[nH]c3ncccc23)NC(=O)[C@H](c2ccccc2)NC(=O)[C@H](C)N(C)C(=O)[C@H](Cc2c[nH]cn2)NC(=O)[C@H](CCCCN)NC(=O)[C@H](C(C)(C)C)NC(=O)[C@H](Cc2ccc(O)cc2)NC(=O)CCCCCNC1=O
B4: R4132 (peptide)
peptide: Ac-[Nva]CY[Tle]KH[NMeS][Phg][Trp(7-aza)]Y[NMePhe(4-F)][Sar]C-NH2
modifications: linker 2-13 via mXylylene
SMILES: CCC[C@H](NC(C)=O)C(=O)N[C@H]1CSCc2cccc(c2)CSC[C@@H](C(N)=O)NC(=O)CN(C)C(=O)[C@H](Cc2ccc(F)cc2)N(C)C(=O)[C@H](Cc2ccc(O)cc2)NC(=O)[C@H](Cc2c[nH]c3ncccc23)NC(=O)[C@H](c2ccccc2)NC(=O)[C@H](CO)N(C)C(=O)[C@H](Cc2c[nH]cn2)NC(=O)[C@H](CCCCN)NC(=O)[C@H](C(C)(C)C)NC(=O)[C@H](Cc2ccc(O)cc2)NC1=O
B5: R4136 (peptide)
peptide: Ac-[Nva]CY[Tle]A[Dap](Acryloyl)[NMeA][Phg][Trp(7-aza)]Y[NMePhe(4-F)][Sar]C-NH2
modifications: linker 2-13 via mXylylene
SMILES: C=CC(=O)NC[C@@H]1NC(=O)[C@H](C)NC(=O)[C@H](C(C)(C)C)NC(=O)[C@H](Cc2ccc(O)cc2)NC(=O)[C@@H](NC(=O)[C@H](CCC)NC(C)=O)CSCc2cccc(c2)CSC[C@@H](C(N)=O)NC(=O)CN(C)C(=O)[C@H](Cc2ccc(F)cc2)N(C)C(=O)[C@H](Cc2ccc(O)cc2)NC(=O)[C@H](Cc2c[nH]c3ncccc23)NC(=O)[C@H](c2ccccc2)NC(=O)[C@H](C)N(C)C1=O
B6: R4139 (peptide)
peptide: cyclo([PEG1]Y[Tle]KH[NMeA][Phg][Trp(7-aza)]Y[NMePhe(4-F)][Sar][Pra])
SMILES: C#CC[C@@H]1NC(=O)CN(C)C(=O)[C@H](Cc2ccc(F)cc2)N(C)C(=O)[C@H](Cc2ccc(O)cc2)NC(=O)[C@H](Cc2c[nH]c3ncccc23)NC(=O)[C@H](c2ccccc2)NC(=O)[C@H](C)N(C)C(=O)[C@H](Cc2c[nH]cn2)NC(=O)[C@H](CCCCN)NC(=O)[C@H](C(C)(C)C)NC(=O)[C@H](Cc2ccc(O)cc2)NC(=O)CCOCCNC1=O
B7: R4130 (peptide)
peptide: cyclo([AEEA]Y[Tle]KH[NMeA][Phg][Trp(7-aza)]Y[NMePhe(4-F)][Sar][Pra])
SMILES: C#CC[C@@H]1NC(=O)CN(C)C(=O)[C@H](Cc2ccc(F)cc2)N(C)C(=O)[C@H](Cc2ccc(O)cc2)NC(=O)[C@H](Cc2c[nH]c3ncccc23)NC(=O)[C@H](c2ccccc2)NC(=O)[C@H](C)N(C)C(=O)[C@H](Cc2c[nH]cn2)NC(=O)[C@H](CCCCN)NC(=O)[C@H](C(C)(C)C)NC(=O)[C@H](Cc2ccc(O)cc2)NC(=O)COCCOCCNC1=O
B8: R4145 (peptide)
peptide: cyclo(Y[Tle]KH[NMeA][Phg][Trp(7-aza)]Y[NMePhe(4-F)][Sar][Pra])
SMILES: C#CC[C@@H]1NC(=O)CN(C)C(=O)[C@H](Cc2ccc(F)cc2)N(C)C(=O)[C@H](Cc2ccc(O)cc2)NC(=O)[C@H](Cc2c[nH]c3ncccc23)NC(=O)[C@H](c2ccccc2)NC(=O)[C@H](C)N(C)C(=O)[C@H](Cc2c[nH]cn2)NC(=O)[C@H](CCCCN)NC(=O)[C@H](C(C)(C)C)NC(=O)[C@H](Cc2ccc(O)cc2)NC1=O
B9: R4144 (peptide)
peptide: Ac-[Nva]CY[Tle]K[dP][NMeA][Phg][Trp(7-aza)]Y[NMePhe(4-F)][Sar]C-NH2
modifications: linker 2-13 via mXylylene
SMILES: CCC[C@H](NC(C)=O)C(=O)N[C@H]1CSCc2cccc(c2)CSC[C@@H](C(N)=O)NC(=O)CN(C)C(=O)[C@H](Cc2ccc(F)cc2)N(C)C(=O)[C@H](Cc2ccc(O)cc2)NC(=O)[C@H](Cc2c[nH]c3ncccc23)NC(=O)[C@H](c2ccccc2)NC(=O)[C@H](C)N(C)C(=O)[C@H]2CCCN2C(=O)[C@H](CCCCN)NC(=O)[C@H](C(C)(C)C)NC(=O)[C@H](Cc2ccc(O)cc2)NC1=O
B10: R4141 (peptide)
peptide: Ac-[Nva]CY[Tle]A[Dap][NMeA][Phg][Trp(7-aza)]Y[NMePhe(4-F)][Sar]C-NH2
modifications: linker 2-13 via mXylylene
SMILES: CCC[C@H](NC(C)=O)C(=O)N[C@H]1CSCc2cccc(c2)CSC[C@@H](C(N)=O)NC(=O)CN(C)C(=O)[C@H](Cc2ccc(F)cc2)N(C)C(=O)[C@H](Cc2ccc(O)cc2)NC(=O)[C@H](Cc2c[nH]c3ncccc23)NC(=O)[C@H](c2ccccc2)NC(=O)[C@H](C)N(C)C(=O)[C@H](CN)NC(=O)[C@H](C)NC(=O)[C@H](C(C)(C)C)NC(=O)[C@H](Cc2ccc(O)cc2)NC1=O
B11: R4140 (peptide)
peptide: Ac-[Nva]CY[Tle]A[Dab][NMeA][Phg][Trp(7-aza)]Y[NMePhe(4-F)][Sar]C-NH2
modifications: linker 2-13 via mXylylene
SMILES: CCC[C@H](NC(C)=O)C(=O)N[C@H]1CSCc2cccc(c2)CSC[C@@H](C(N)=O)NC(=O)CN(C)C(=O)[C@H](Cc2ccc(F)cc2)N(C)C(=O)[C@H](Cc2ccc(O)cc2)NC(=O)[C@H](Cc2c[nH]c3ncccc23)NC(=O)[C@H](c2ccccc2)NC(=O)[C@H](C)N(C)C(=O)[C@H](CCN)NC(=O)[C@H](C)NC(=O)[C@H](C(C)(C)C)NC(=O)[C@H](Cc2ccc(O)cc2)NC1=O
B12: R4133 (peptide)
peptide: Ac-[Nva]CY[Tle]AH[NMeK](Acryloyl)[Phg][Trp(7-aza)]Y[NMePhe(4-F)][Sar]C-NH2
modifications: linker 2-13 via mXylylene
SMILES: C=CC(=O)NCCCC[C@H]1C(=O)N[C@@H](c2ccccc2)C(=O)N[C@@H](Cc2c[nH]c3ncccc23)C(=O)N[C@@H](Cc2ccc(O)cc2)C(=O)N(C)[C@@H](Cc2ccc(F)cc2)C(=O)N(C)CC(=O)N[C@H](C(N)=O)CSCc2cccc(c2)CSC[C@H](NC(=O)[C@H](CCC)NC(C)=O)C(=O)N[C@@H](Cc2ccc(O)cc2)C(=O)N[C@@H](C(C)(C)C)C(=O)N[C@@H](C)C(=O)N[C@@H](Cc2c[nH]cn2)C(=O)N1C

For this assay, the target named is GMPPNP-loaded H-Ras or GTP-loaded K-Ras. In words: FP competition, displacement of probe R4007 from Ras.
Ac-[Nva]CY[Tle]KH[NMeA]A[Trp(7-aza)]Y[NMeA][Sar]CGGGCVIM (linker 2-13 via mXylylene) [R4143] had an IC50 of 1640 nM.

Glutaryl-[Nva]CY[Tle]K(ivDde)H[NMeA][Phg][Trp(7-aza)]Y[NMePhe(4-F)][Sar]C-NH2 (linker 2-13 via m‑xylylene) [R4138] returned an IC50 of 461 nM.

B1 registered an IC50 of 3390 nM.

As for B2, the IC50 turned out to be 1240 nM.

Molecule B3 had an IC50 of 411 nM.

Consider B4, for which the IC50 came to 281 nM.

As for Ac-[Nva]SY[Tle]A[DAPTZAC1][NMeA][ξPhg][Trp(7-aza)]Y[NMePhe(4-F)][Sar]S-NH2 [R4005], the IC50 came to 2070 nM.

B5 returned a 50% inhibitory concentration (IC50) of 392 nM.

As for Ac-[Nva]CY[Tle]K(ivDde)H[NMeA][Phg][Trp(7-aza)]Y[NMePhe(4-F)][Sar]C (linker 2-13 via m‑xylylene) [R4135], the IC50 was determined as 364 nM.

Ac-[Nva]CY[Tle]K(4‑(dimethylamino)benzoyl)H[NMeA][Phg][Trp(7-aza)]Y[NMePhe(4-F)][Sar]C-NH2 (linker 2-13 via mXylylene) [R4134] had an IC50 of 346 nM.

The molecule B6 had an IC50 of 522 nM.

B7 had an IC50 of 268 nM.

Take Ac-[Nva]SY[Tle]A[DAPTZAC3][NMeA][ξPhg][Trp(7-aza)]Y[NMePhe(4-F)][Sar]S-NH2 (also: places Phg, 7-azaTrp, NMe-4-F-Phe, Sar at 9, 10, 12, 13) [R4148]: the IC50 worked out at 6000 nM.

As to B8, the IC50 was determined as 2800 nM.

Consider B9, for which the IC50 was 1960 nM.

As to B10, the IC50 was 695 nM.

Turning to Ac-[Nva]CY[Tle]KH[NMeA][Phg][Trp(7-aza)]Y[NMePhe(4-F)][Sar]CGGGCVIM (linker 2-13 via mXylylene) [R4131], the IC50 was 278 nM.

Take Ac-[Nva]CY[Tle]KH[NMeA][Phg][Trp(7-aza)]Y[NMePhe(4-F)][Sar]C[PEG4][ADTZPA″]-NH2 (linker 2-13 via mXylylene) [R4147]: the IC50 was determined as 5190 nM.

Molecule B11 came in with an IC50 of 608 nM.

Regarding B12, the IC50 was found to be 342 nM.

As usually defined, the IC50 is the concentration that inhibits the measured activity by half.
